Data published in article PMC5861432.

T1: IRF3(6D) (human, UniProt Q14653 1-427, S386D;S396D;S398D;S402D;T404D;S405D)
T1 sequence: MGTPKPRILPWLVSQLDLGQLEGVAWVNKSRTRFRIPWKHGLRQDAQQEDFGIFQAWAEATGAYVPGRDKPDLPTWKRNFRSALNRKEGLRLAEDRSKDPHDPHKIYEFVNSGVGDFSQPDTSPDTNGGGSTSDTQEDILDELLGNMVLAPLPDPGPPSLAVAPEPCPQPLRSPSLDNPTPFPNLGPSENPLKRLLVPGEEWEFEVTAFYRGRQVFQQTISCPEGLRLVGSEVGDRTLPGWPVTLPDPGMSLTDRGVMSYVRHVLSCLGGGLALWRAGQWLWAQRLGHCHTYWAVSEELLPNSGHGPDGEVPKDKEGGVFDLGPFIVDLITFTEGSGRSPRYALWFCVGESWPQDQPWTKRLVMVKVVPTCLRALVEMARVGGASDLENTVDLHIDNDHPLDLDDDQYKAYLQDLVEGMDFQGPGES

B1: proximal dimer (2-bp spacer) (dsDNA)
DNA 1: GCACCGCTAACCGAAACCGAAACTGTGC
DNA 2: GCACAGTTTCGGTTTCGGTTAGCGGTGC
B2: C-2 PBM probe (dsDNA)
DNA 1: GCCTAGCACTAACCGAAACCGAAACCTAAGTGCTAGGTCTTGATTCGCTTGACGCTGCTG
DNA 2: CAGCAGCGTCAAGCGAATCAAGACCTAGCACTTAGGTTTCGGTTTCGGTTAGTGCTAGGC

Experiments:
IRF3(6D) [1] = target: T1, IRF3(6D); test: EMSA
IRF5(4D) = IRF5(4D) (human, UniProt Q13568-2 1-514, S451D;S453D;S456D;S462D); test: PBM
IRF3(6D) [2] = target: T1, IRF3(6D); test: PBM

Binder	binding result (IRF3(6D) [1])	binding result (IRF5(4D))	binding result (IRF3(6D) [2])
B1	binds	–	–
B2	–	binds	binds
